Reference: publication PMC2191679

Biological target: H-2Kb on the surface of RMA-S cells (mouse (endogenous in RMA-S))
Experiment: stabilisation of Kb on RMA-S cells

In the case of SIIRFEKL [OVA257-264/P4N->R], the relative efficiency of peptide-binding to Kb (parent OVA257-264 = 1) is reported as 1.

Binder SVVRFDKL [OVA55-62/P1K->S] has a relative efficiency of peptide-binding to Kb (parent OVA55-62 = 1) of 2.

SIVNFEKL [OVA257-264/P3I->V] gave a relative efficiency of peptide-binding to Kb (parent OVA257-264 = 1) of 1.

Work on KVIRFDKL [OVA55-62/P3V->I] yielded a relative efficiency of peptide-binding to Kb (parent OVA55-62 = 1) of 1.

For KVVRFEKL [OVA55-62/P6D->E], the relative efficiency of peptide-binding to Kb (parent OVA55-62 = 1) was 10.

With KIINFEKL [OVA257-264/P1S->K] the relative efficiency of peptide-binding to Kb (parent OVA257-264 = 1) was 1.

In the case of KVVNFDKL [OVA55-62/P4R->N], the relative efficiency of peptide-binding to Kb (parent OVA55-62 = 1) is reported as 2.
